Experiments:
[1] = target: TDPX1 Cys35Ala (Leishmania major (Friedlin strain)); test: SDS-PAGE after reduction or oxidation
[2] = target: TDPX1 Cys83Ala (Leishmania major (Friedlin strain)); test: SDS-PAGE after reduction or oxidation

Substance | stoichiometry N [1] | stoichiometry N [2]
TDPX1 Cys35Ala (enzyme) | 2 | 
TDPX1 Cys83Ala (enzyme) |  | 2
